These results are taken from patent US20240245793A1, “PSD-95 INHIBITORS AND USES THEREOF” (priority 2021, published 2024).

The chains are these.
B1: compound 21, NPEG4-(VETVV)2 fused to L-TAT (Ac-[…]-) (peptide)
peptide: VETVV
chain: […]
modifications: not checked
B2: compound 13, NPEG4-(KETTV)2 fused to L-TAT (Ac-[…]-) (peptide)
peptide: KETTV
chain: […]
modifications: not checked
B3: compound 17, NPEG4-(KETRV)2 fused to L-TAT (Ac-[…]-) (peptide)
peptide: KETRV
chain: […]
modifications: not checked
B4: compound 15, NPEG4-(KETVV)2 fused to L-TAT (Ac-[…]-) (peptide)
peptide: KETVV
chain: […]
modifications: not checked
B5: compound 19, NPEG4-(ISTDV)2 fused to L-TAT (Ac-[…]-) (peptide)
peptide: ISTDV
chain: […]
modifications: not checked
B6: compound 11, NPEG4-(KETLV)2 fused to L-TAT (Ac-[…]-) (peptide)
peptide: KETLV
chain: […]
modifications: not checked

The test deals with PDZ1-2 of PSD-95 (postsynaptic density protein-95), P78352. As to the kind of experiment: FP competition against fluorescent dimeric probe, Ki from IC50.
Sequence of PDZ1-2 of PSD-95 (postsynaptic density protein-95), P78352 (P78352 61-249 limits assumed): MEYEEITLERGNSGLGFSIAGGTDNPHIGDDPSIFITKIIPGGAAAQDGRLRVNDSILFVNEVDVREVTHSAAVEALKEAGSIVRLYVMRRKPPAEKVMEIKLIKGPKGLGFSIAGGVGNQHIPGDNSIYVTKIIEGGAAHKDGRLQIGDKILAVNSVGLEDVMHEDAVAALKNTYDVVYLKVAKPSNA
In turn, B1 yielded a Ki of 15.8 nM. As for B2, the figure is 6.5 nM; as for B3, 6.6 nM; as for B4, 2.1 nM. With B5 the figure was 36.1 nM.

Turning to B6, the Ki came out at 5.4 nM.
